What was measured:
[1] = molecular target: T1, Human IL-6 receptor (Homo sapiens, UniProt P08887); assay: cell-based or functional assay
[2] = molecular target: T1, Human IL-6 receptor; assay: ELISA; human IL-6R (2 µg/mL) immobilised on microtiter plates; serial dilutions of pIL6RmAb; detected with HRP-conjugated anti-human-gamma HC antibody; KD by non-linear regression, one-site binding model; conditions: both partners purified

T1 sequence (P08887 20-365): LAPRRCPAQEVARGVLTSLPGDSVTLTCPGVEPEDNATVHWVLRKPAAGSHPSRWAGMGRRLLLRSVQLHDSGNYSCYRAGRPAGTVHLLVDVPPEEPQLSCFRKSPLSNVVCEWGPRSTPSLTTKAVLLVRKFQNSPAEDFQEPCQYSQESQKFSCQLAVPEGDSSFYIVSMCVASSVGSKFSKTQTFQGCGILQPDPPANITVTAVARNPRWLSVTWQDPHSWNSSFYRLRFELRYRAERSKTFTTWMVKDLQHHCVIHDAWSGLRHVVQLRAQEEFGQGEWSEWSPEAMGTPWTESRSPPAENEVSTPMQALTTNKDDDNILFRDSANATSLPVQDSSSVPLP

B1: Plant-produced IL6RmAb (anti-IL-6 receptor monoclonal antibody with the amino acid sequence of sarilumab) (antibody, V domains shown)
VH: EVQLVESGGGLVQPGRSLRLSCAASRFTFDDYAMHWVRQAPGKGLEWVSGISWNSGRIGYADSVKGRFTISRDNAENSLFLQMNGLRAEDTALYYCAKGRDSFDIWGQGTMVTVSS
VL: DIQMTQSPSSVSASVGDRVTITCRASQGISSWLAWYQQKPGKAPKLLIYGASSLESGVPSRFSGSGSGTDFTLTISSLQPEDFASYYCQQANSFPYTFGQGTKLEIK
notes: heavy chain of sarilumab; light chain of sarilumab; Full IgG1 with kappa light chain, heterotetramer of ~150 kDa; made in a glycoengineered N. benthamiana line; also called pIL6RmAb; anti-IL6R mAb; copies: 2 + 2
**Q.** For B1, which “IC50 of inhibition of IL-6 signaling in luciferase reporter cells (Promega IL-6 Bioassay) with 25 ng/mL (~1.19 nM) recombinant human IL-6; blocks IL-6 with IL-6R” value [1] is on record?
**A.** 0.081 µg/mL

**Q.** What about the “IC50 of inhibition of IL-6 signaling in luciferase reporter cells (Promega IL-6 Bioassay) with 25 ng/mL (~1.19 nM) recombinant human IL-6; blocks IL-6 with IL-6R (the same IC50 in molar units)” value [1] of the same binder?
**A.** ~0.54 nM

**Q.** What about the Kd [2] of the same binder?
**A.** 0.083 nM
